Test results reported in US8691960B2, “Oxidoreductases for enantioselective reactions” (Duke University, priority 2012, dated 2014).
Read-outs that look alike come from different tables or passages of the source. Values belong to the molecule of their own block, whether it stands above or below them.

Assays:
[1] = NADH oxidation with 2-oxoadipate plus CO2 added as NaHCO3 (reductive carboxylation); assay type: biochemical
Protocol: (§1) NADH, 2-oxoadipate, 2-oxoglutarate, 2-heptandioate, and MgCl2 were from Sigma. Standard reaction mixes contained 15 mM 2-oxoadipate, 100 μM NADH, and a reaction buffer with final concentrations of 20 mM MgCl2 and 500 mM HEPES, pH 7.3. NADH oxidation was monitored by the decrease in fluorescence with excitation of 340 nm and emission of 450 nm on a PolarSTAR Optima plate reader (BMG Labtech). Fluorescence monitored reactions were carried out in 10-μL volumes in a 384-well black microplate (Greiner 788076) covered with clear optical film. The levels of fluorescence were converted to NADH concentrations based on standards of NADH in reaction buffer containing BSA. Reactions with high amounts of NADH were monitored by the UV absorbance of NADH at 340 nm in 40-μL reaction volumes in clear 96-well plates.
(§2) Reaction rates are NADH oxidation per unit time per unit of purified enzyme or crude lysate and 1 Unit (U) is 1 μmolNADH min^−1 mgenzyme^−1. Rates are initial rates calculated by least squares linear regression on the first 10 minutes of the reaction. For KM determination, concentrations of substrate/cofactors at least 5×-higher than the KM were used, while the species of interest was varied in concentration; substrate/cofactor concentrations: 500 μM NADH; 15 mM 2-oxoadipate; 20 mM MgCl2. Reported α-hydroxyadipate (2-hydroxy adpic acid) Vmax values were obtained from 2-oxoadipate KM determination experiments. Michaelis-Menten KM and Vmax parameters were estimated by fitting data to a curve using nonlinear regression in GraphPad Prism 5.0 (GraphPad Software, La Jolla, Calif.).

[2] = Enantiospecific LC-MS/MS quantification of (R)- and (S)-2-hydroxyadipate product; assay type: biochemical; details: for concentration of (R)-2-hydroxyadipate after 10 h: ScHIDH, initially 2 mM NADH and 2 mM 2-oxoadipate
Protocol: Quantitative, enantiospecific LC-MS/MS was performed based on the procedure described for 2-hydroxyglutarate. Jin et al., PLoS one 6, e16812: 1-8 (2011); Struys, et al., Clin. Chem. 50: 1391-1395 (2004). To 20 μL of reaction mix, 2 μL of 130 μg/mL of a racemic mixture of [3,3,4,4-^2H4]-2-hydroxyglutarate (internal standard) in water was added and the mixture dried by vacuum centrifuge (50° C., 15 min). The dry residue was treated with 50 mg/mL freshly prepared diacetyl-L-tartaric anhydride (Sigma) in dichloromethane/glacial acetic acid (4:1 by volume) and heated (75° C., 30 min). After drying (50° C., 15 min) the residue was dissolved in 100 μL of LC mobile phase A (see below) for analysis. An Agilent 1200 series HPLC (Santa Clara, Calif.) was used for liquid chromatography (LC) and a Sciex/Applied Biosystems API 3200 QTrap (Carlsbad, Calif.) was used for triple quadrupole mass spectrometry (MS/MS). Mobile phase A: water, 3% acetonitrile, 280 μL ammonium hydroxide (^˜25%), pH adjusted to 3.6 with formic acid (^˜98%). Mobile phase B: methanol. Analytical column: Kinetex C-18, 150×4.6 mm, 2.6 μm, and SafeGuard C-18 4×3 mm guard-column from Phenomenex (Torrance, Calif.). Column temperature: 45° C. Elution gradient at 1 mL/min flow rate: 0-1 min 0% B, 1-2 min 0-100% B, 2-3.5 min 100% B, 3.5-4 min 100-0% B, 4-10 min 0% B. Injection volume: 10 μL. Q1/Q3 (m/z) transitions were monitored: 377/161, 2-hydroxyadipate (2HA) and 367/151, [3,3,4,4-^2H4]-2-hydroxyglutarate (2HG-d4). To calibrate, 0, 0.16, 0.54, 1.8, 6, and 20 μg/mL 2-hydroxyadipate (Sigma), synthesized as described above, was analyzed in reaction buffer. (R)- and (S)-enantiomers were discriminated based on time of elution from the HPLC column, using the relative elution time for (R)-2-hydroxyglutarate compared to the racemic mixture of 2-hydroxyglutarate described previously to identify the (R)-2-hydroxyadipate enantiomer. Jin et al., PLoS one 6, e16812: 1-8 (2011). Standards were analyzed alongside experimental samples. Accuracy acceptance criteria were 85% for all but the lowest level (0.16 μg/mL, 80%).

[3] = literature; cited from earlier work
[4] = NADH oxidation rate of purified HIDH enzymes with 2-oxoadipate (fluorescence / UV 340 nm); assay type: biochemical; details: for rate of NADH oxidation in the presence of 2-oxoadipate: 15 mM 2-oxoadipate, 100 μM NADH, 0.4 μg purified enzyme
Protocol: as §1, §2
(§3) Assays were performed with 40 ng/μL enzyme, 15 mM 2-oxoadipate, 100 μM NADH, 20 mM MgCl2 and 100 mM HEPES, pH 7.3 in 10 or 20 μL volumes in 384-well black microplates. NADH concentration was monitored by the decrease in fluorescence (excitation wavelength: 340 nm; emission wavelength: 450 nm) on a fluorescent plate reader. The fluorescence intensities were converted to NADH concentrations based on NADH standards. Reactions with high amounts of NADH (>300 μM) were monitored by the UV absorbance of NADH at 340 nm in a 40 μL reaction volume in a clear 96-well plate on the same plate reader. Reactions with ScHIDH were carried out at 25° C. and reactions with TtHIDH were carried out at 45° C. Reported rates are initial rates from the first 10 minutes of reaction. For KM determination, concentrations of substrate at least 5×-higher than the KM were used (for NADH, 500 μM; for 2-oxoadipate, 15 mM) while the substrate of interest was varied in concentration. KM and Vmax were estimated by fitting data to equation (1) using nonlinear regression, where x is substrate concentration and y is the rate. y=Vmax·x/KM+x (1) Rate data for ScHIDH-R143C, -R143H, and -R143K are summarized in Table 3.

[5] = NADH oxidation rate of purified HIDH mutants with 2-oxoglutarate as substrate; assay type: biochemical; details: ScHIDH-R143H
Protocol: as §1
(§4) Reaction rates are NADH oxidation per unit time per unit of purified enzyme or crude lysate and 1 Unit (U) is 1 μmolNADH min^−1 mgenzyme^−1. Rates are initial rates calculated by least squares linear regression on the first 10 minutes of the reaction. For KM determination, concentrations of substrate/cofactors at least 5×-higher than the KM were used, while the species of interest was varied in concentration; substrate/cofactor concentrations: 500 μM NADH; 15 mM 2-oxoadipate; 20 mM MgCl2. […]

[6] = NADH oxidation rate of purified ScHIDH-R143H with 2-oxoheptanedioic acid as substrate; assay type: biochemical
Protocol: as §1, §4

[7] = Kinetic characterization of ScHIDH mutants: KM 2-oxoadipate and Vmax; assay type: biochemical
Protocol: as §2, §3

[8] = Kinetic characterization of ScHIDH mutants: KM NADH; assay type: biochemical
Protocol: as §2, §3

[9] = Magnesium dependence of ScHIDH-R143H; assay type: biochemical
Protocol: as §3
ScHIDH-R143H activity was assayed at various MgCl2 concentrations under the standard reaction conditions described in Example 11. The rate is relative to the rate at 20 mM MgCl2. […]

[10] = pH dependence of ScHIDH-R143H; assay type: biochemical
Protocol: as §3
ScHIDH-R143H activity was assayed in HEPES buffer at various pH under the standard reaction conditions described in Example 11, above. The rate is relative to the rate at pH 7.4. […]

[11] = ScHIDH, literature; read-out: KM,HCO3, previous observation; cited from earlier work
[12] = literature (Lin et al. 2007); cited from earlier work

B1: TtHIDH-WT: wild type Thermus thermophilus homoisocitrate dehydrogenase (protein, listed as Thermus thermophilus)
chain: MAYRICLIEGDGIGHEVIPAARRVLEATGLPLEFVEAEAGWETFERRGTSVPEETVEKILSCHATLFGAATSPTRKVPGFFGAIRYLRRRLDLYANVRPAKSRPVPGSRPGVDLVIVRENTEGLYVEQERRYLDVAIADAVISKKASERIGRAALRIAEGRPRKTLHIAHKANVLPLTQGLFLDTVKEVAKDFPLVNVQDIIVDNCAMQLVMRPERFDVIVTTNLLGDILSDLAAGLVGGLGLAPSGNIGDTTAVFEPVHGSAPDIAGKGIANPTAAILSAAMMLDYLGEKEAAKRVEKAVDLVLERGPRTPDLGGDATTEAFTEAVVEALKSL
rate of NADH consumption with NaHCO3 added ([1]; TtHIDH, 2-oxoadipate and NADH, CO2 added as NaHCO3): 0.14±0.022 U | increase of (R)-2-hydroxyadipate concentration after 2 h ([2]; TtHIDH, 100 μM NADH, 15 mM 2-oxoadipate, 45° C., 2 h): not observed | efficiency for 2-oxoglutarate relative to 2-oxoadipate [3]: 20 times

rate of NADH oxidation in the presence of 2-oxoadipate ([4]; ScHIDH): 0.0096±0.000014 U | decrease of NADH concentration after 10 h compared to a buffer control ([4]; ScHIDH, initially 2 mM NADH and 2 mM 2-oxoadipate, 10 h): 0.62 mM | NADH oxidation rate, reaction containing no substrate ([4]; ScHIDH-R143H, no substrate): < 0.001 U
B2: ScHIDH-R143H: Saccharomyces cerevisiae homoisocitrate dehydrogenase R143H mutant, an (R)-2-hydroxyadipate dehydrogenase (protein)
chain: MFRSVATRLSACRGLASNAARKSLTIGLIPGDGIGKEVIPAGKQVLENLNSKHGLSFNFIDLYAGFQTFQETGKALPDETVKVLKEQCQGALFGAVQSPTTKVEGYSSPIVALRREMGLFANVRPVKSVEGEKGKPIDMVIVHENTEDLYIKIEKTYIDKATGTRVADATKRISEIATRRIATIALDIALKRLQTRGQATLTVTHKSNVLSQSDGLFREICKEVYESNKDKYGQIKYNEQIVDSMVYRLFREPQCFDVIVAPNLYGDILSDGAAALVGSLGVVPSANVGPEIVIGEPCHGSAPDIAGKGIANPIATIRSTALMLEFLGHNEAAQDIYKAVDANLREGSIKTPDLGGKASTQQVVDDVLSRL
modifications: ScHIDH R143H polypeptide
notes: Saccharomyces cerevisiae homoisocitrate dehydrogenase R143H mutant, an (R)-2-hydroxyadipate dehydrogenase
NADH oxidation rate in the presence of 15 mM 2-oxoglutarate [5]: < 0.001 U | NADH oxidation rate in the presence of 15 mM 2-oxoheptanedioic acid [6]: < 0.001 U | stimulation by addition of NaHCO3 ([1]; up to 60 mM NaHCO3): not stimulated | concentration of (R)-2-hydroxyadipate after 10 h [2]: 0.97 mM | Enantiomeric Excess ([2]; Table 3, (R)-2-hydroxyadipate product): > 99.1% | Km ([7]; Table 3, 40 ng/μL enzyme, 500 μM NADH, 20 mM MgCl2, pH 7.3, 25° C.): 2000 µM | Vmax ([7]; Table 3, from 2-oxoadipate KM experiments): 0.036 µmol/min/mg | Km ([7]; purified enzyme): 1400 ± 250 µM | maximal velocity (Vmax) ([7]; purified enzyme): 0.020±0.0027 U | Km ([8]; Table 3, 15 mM 2-oxoadipate, 20 mM MgCl2, pH 7.3, 25° C.): 88 µM | Km ([8]; purified enzyme): 85 ± 21 µM | Km ([9]; Table 3, read-out: KM MgCl2): 1200 µM | Km ([9]; various MgCl2 concentrations, standard conditions, read-out: KM for MgCl2): 1100 µM | pH optimum ([10]; HEPES buffer at various pH, standard conditions): 7.4 | pH optimum ([10]; Table 3, HEPES buffer): 7.4

rate of NADH oxidation in the presence of 2-oxoadipate ([4]; ScHIDH): < 0.001 U
B3: ScHIDH-WT: wild type Saccharomyces cerevisiae homoisocitrate dehydrogenase (encoded by LYS12) (protein, listed as Saccharomyces cerevisiae)
chain: MFRSVATRLSACRGLASNAARKSLTIGLIPGDGIGKEVIPAGKQVLENLNSKHGLSFNFIDLYAGFQTFQETGKALPDETVKVLKEQCQGALFGAVQSPTTKVEGYSSPIVALRREMGLFANVRPVKSVEGEKGKPIDMVIVRENTEDLYIKIEKTYIDKATGTRVADATKRISEIATRRIATIALDIALKRLQTRGQATLTVTHKSNVLSQSDGLFREICKEVYESNKDKYGQIKYNEQIVDSMVYRLFREPQCFDVIVAPNLYGDILSDGAAALVGSLGVVPSANVGPEIVIGEPCHGSAPDIAGKGIANPIATIRSTALMLEFLGHNEAAQDIYKAVDANLREGSIKTPDLGGKASTQQVVDDVLSRL
rate of NADH oxidation when CO2 was added as HCO3 ([1]; ScHIDH, 2-oxoadipate, NADH): 0.061±0.0090 U | Km ([1]; ScHIDH, read-out: KM,HCO3): 10000 ± 3700 µM | concentration of (R)-2-hydroxyadipate after 10 h [2]: no 2-hydroxyadipate accumulation was observed | Km [11]: 16300 µM | rate for homoisocitrate relative to isocitrate [12]: 216 fold
